# Results from paper PMC3346761, “Insight into the Assembly Properties and Functional Organisation of the Magnetotactic Bacterial Actin-like Homolog, MamK” (PLoS ONE, 2012).
# Biological target: the molecule itself
# Assay: small angle scattering + dynamic light scattering (PDI); results not shown; conditions not given
protein,measurement,value
"MamK from Magnetospirillum gryphiswaldense MSR-1, C-terminal poly-histidine-tagged (natural protein, UniProt Q6NE59 1-360, looked up, MamK, actin-like protein of M. gryphiswaldense MSR-1; mamK gene (1083 bp) cut from a MamK-pGEM construct with SalI/EcoRI and sub-cloned into pET29b; purified as a 42 KDa protein; No cleavage of the tag is described; also called His-MamK; His-tagged MamK) MWIDLLARERSDKMSEGEGQAKNRLFLGIDLGTSHTAVMTSRGKKFLLKSVVGYPKDVIGLKLLGRPYVVGDEAFEMRSYLDLRYPLQDGVLSEISDRDIEVARHLLTHVVKSAEPGANDEICAVIGVPARASGANKALLLKMAQEVVHTALVVSEPFMVGYGLDKLNNTIIVDIGAGTTDICALKGTVPGPEDQVTLTKAGNYLDERLQNAILERHPELQMNTNVACAVKEQFSFVGARGEAATFEFRAAGKPVRCDVTESVKIACEALMPDIIESIEILLRSFQPEYQATVLQNIVFAGGGSRIRGLAAYVKDKLRPFGNADVTCVKDPTFDGCRGALRLAEELPPQYWCQLGDVSGQ",stoichiometry N,2 to 6
